Test results reported in paper PMC2837848 (Biochemistry, 2010).
Changes are numbered by the printed parent chain. In names and notes the source's numbering stands.

B1: Salmonella typhimurium QAPRTase R118A (enzyme)
chain: MPPRRYNPDDRRDALLERINLDIPAAVAQALREDLGGEVDAGNDITAQLLPADTQAHATVITREDGVFCGKRWVEEVFIQLAGDDVRLTWHVDDGDAIHANQTVFELNGPARVLLTGEATALNFVQTLSGVASEVRRYVGLLAGTQTQLLDTRKTLPGLRTALKYAVLCGGGANHRLGLTDAFLIKENHIIASGSVRQAVEKAFWLHPDVPVEVEVENLDELDDALKAGADIIMLDNFNTDQMREAVKRVNGQARLEVSGNVTAETLREFAETGVDFISVGALTKHVRALDLSMRFC
B2: Salmonella typhimurium QAPRTase R152A (enzyme)
chain: B1 chain with A119R, R153A
B3: Salmonella typhimurium QAPRTase H188A (enzyme)
chain: B1 chain with A119R, H189A
B4: Salmonella typhimurium QAPRTase K185A (enzyme)
chain: B1 chain with A119R, K186A
B5: Salmonella typhimurium QAPRTase R175A (enzyme)
chain: B1 chain with A119R, R176A

Biological target: the molecule itself
Experiment: SEC

Row | Protein | stoichiometry N
1 | B1 | 2
2 | B2 | 2
3 | B3 | 2
4 | B4 | 2
5 | B5 | 2
